For this data set, the target named is T1, PrimPol WT (UniProt Q96LW4 1-560).
T1 sequence: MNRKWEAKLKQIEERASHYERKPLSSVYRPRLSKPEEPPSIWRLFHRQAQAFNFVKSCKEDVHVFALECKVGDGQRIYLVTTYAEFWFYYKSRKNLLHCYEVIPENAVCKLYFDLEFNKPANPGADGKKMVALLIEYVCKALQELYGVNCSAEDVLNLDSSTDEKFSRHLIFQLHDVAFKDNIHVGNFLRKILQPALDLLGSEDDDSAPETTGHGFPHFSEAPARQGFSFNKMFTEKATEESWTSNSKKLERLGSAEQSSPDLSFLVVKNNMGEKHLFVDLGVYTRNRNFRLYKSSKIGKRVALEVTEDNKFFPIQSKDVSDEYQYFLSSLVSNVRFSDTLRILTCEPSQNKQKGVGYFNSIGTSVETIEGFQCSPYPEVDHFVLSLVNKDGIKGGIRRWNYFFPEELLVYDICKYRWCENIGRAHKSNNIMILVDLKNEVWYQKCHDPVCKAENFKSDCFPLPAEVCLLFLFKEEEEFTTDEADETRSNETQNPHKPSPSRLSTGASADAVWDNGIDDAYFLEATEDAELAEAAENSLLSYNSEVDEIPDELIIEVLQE
The experiment in a line: thermal shift (DSF, stabilization by DNA); 10 uM Mn2+; EMSA: Mn2+ present, buffer not given in the material. DSF: 5 uM protein, 5 uM dsDNA, 50 mM Tris pH 7.5, 300 mM NaCl, 0.5 uM TCEP, 5% glycerol, 10 uM MgCl2 or MnCl2, 4-95 C ramp. The settings on record: protein: recombinant; tags: N-terminal His-TEV (tag cleaved); 20 bp, template 5' overhang 25 nt.

B1: D20A/D45 primer/template (dsDNA)
DNA 1: GCCTCGCAGCCGTCCAACCA
DNA 2: GGACGGCATTGGATCGAGGTTGAGTTGGTTGGACGGCTGCGAGGC
B1: the binding result is recorded as “binds”.

For the origin of these results see publication PMC7283272, “Identifying the role of PrimPol in TDF-induced toxicity and implications of its loss of function mutation in an HIV+ patient”.
